PMC3983792 (Nature, 2012)
Each block holds one molecule with its values, some of them ahead of it.

Legend:
[1] = biological target: menin-MLL1_(MBM-LBM) complex (human) (UniProt O00255); assay: ITC
[2] = biological target: T1, meninΔ (human menin with the unstructured loop, residues 460–519, deleted) (human, UniProt O00255-2 1-610, residues 460–519 deleted); assay: crystal structure
T1 sequence (looked up): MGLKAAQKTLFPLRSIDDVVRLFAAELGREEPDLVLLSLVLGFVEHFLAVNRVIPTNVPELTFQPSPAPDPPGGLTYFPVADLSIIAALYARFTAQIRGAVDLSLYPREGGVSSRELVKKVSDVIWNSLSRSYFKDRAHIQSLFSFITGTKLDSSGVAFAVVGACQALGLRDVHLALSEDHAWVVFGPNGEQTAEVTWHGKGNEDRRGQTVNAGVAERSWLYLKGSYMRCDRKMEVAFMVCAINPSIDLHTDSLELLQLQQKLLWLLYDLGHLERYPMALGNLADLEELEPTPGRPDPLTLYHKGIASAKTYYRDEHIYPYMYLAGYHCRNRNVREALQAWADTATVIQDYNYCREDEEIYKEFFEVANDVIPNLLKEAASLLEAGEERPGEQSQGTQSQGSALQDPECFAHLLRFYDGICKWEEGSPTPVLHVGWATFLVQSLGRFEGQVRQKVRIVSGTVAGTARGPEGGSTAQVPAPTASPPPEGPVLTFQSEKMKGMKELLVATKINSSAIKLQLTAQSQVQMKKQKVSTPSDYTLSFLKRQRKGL

[3] = biological target: T1, meninΔ (human menin with the …); assay: ITC
[4] = biological target: T2, full-length menin (human, UniProt O00255-2 1-610); assay: ITC
T2 sequence (looked up): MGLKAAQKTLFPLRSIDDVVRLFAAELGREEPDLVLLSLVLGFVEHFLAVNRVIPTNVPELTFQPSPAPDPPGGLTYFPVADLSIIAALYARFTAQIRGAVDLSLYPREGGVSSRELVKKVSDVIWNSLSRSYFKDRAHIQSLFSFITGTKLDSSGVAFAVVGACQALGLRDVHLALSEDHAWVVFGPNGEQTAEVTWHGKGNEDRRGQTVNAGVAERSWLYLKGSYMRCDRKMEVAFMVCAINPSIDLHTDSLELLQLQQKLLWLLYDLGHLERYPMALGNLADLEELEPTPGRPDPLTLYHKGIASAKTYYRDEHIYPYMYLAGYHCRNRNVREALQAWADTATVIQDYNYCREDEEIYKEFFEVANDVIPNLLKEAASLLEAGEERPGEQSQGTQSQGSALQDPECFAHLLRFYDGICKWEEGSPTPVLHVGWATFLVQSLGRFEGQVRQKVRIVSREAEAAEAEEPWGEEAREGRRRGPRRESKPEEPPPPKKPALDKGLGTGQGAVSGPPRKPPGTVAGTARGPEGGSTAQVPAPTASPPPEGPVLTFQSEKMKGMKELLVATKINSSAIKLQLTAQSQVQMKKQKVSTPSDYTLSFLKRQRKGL

[5] = biological target: T2, full-length menin; assay: pull-down

binding result [2]: binds
Molecule: SPGRLFPGAPPTAKK (peptide, UniProt P17535 27-47, looked up) [JunDMBMΔ (JunD residues 27–47 with residues 40–45 deleted)]

fold decrease in binding affinity against wild-type MLL1MBM [3]: 21 fold
Molecule: RWRFPARPGTTGGGGGGGEE (peptide, UniProt Q03164 6-25, looked up) [MLL1MBM with 24RR25 substituted with two glutamates]

binding result [5]: binds
B1: GST-fused JunD (residues 1–150) (domain or fragment, human, UniProt P17535 1-150, looked up)
chain: METPFYGDEALSGLGGGASGSGGSFASPGRLFPGAPPTAAAGSMMKKDALTLSLSEQVAAALKPAAAPPPTPLRADGAPSAAPPDGLLASPDLGLLKLASPELERLIIQSNGLVTTTPTSSQFLYPKVAASEEQEFAEGFVKALEDLHKQ

Second part, the molecule before the results:

Molecule: LEDGFIBD (IBD domain of LEDGF) (domain or fragment)
Kd [1]: 470 nM

Molecule: RWRFPARPGTTGGGGGGGRR (peptide, UniProt Q03164 6-25, looked up) [MLL1MBM (menin-binding motif, residues 6–25 of MLL1)]
Kd [3]: 82 nM
binding result [4]: binds

Molecule: SPGRLFPGAPPTAAAGSMMKK (peptide, UniProt P17535 27-47, looked up) [JunDMBM (JunD residues 27–47, menin-binding motif)]
binding result [3]: binds

B2: MLL1_(MBM-LBM)Δ (MLL1 residues 6–153 with loops 16–22 and 36–102 deleted) (domain or fragment, human, UniProt Q03164 6-153, looked up)
chain: RWRFPARPGTGRRGLGGAPRQRVPALLRVGPGFDAALQVSAAIGTNLRRFRAVFGESGGGGGSGEDEQFLGFGS
binding result [2]: binds

Molecule: ARGRFPGRPRGAGGGGGRGG (peptide, UniProt Q9UMN6 16-35, looked up) [MLL2MBM (MLL2 residues 16–35)]
Kd [3]: 120 nM
